Data as given in article PMC10447241 (Nature, 2023).

Columns and labels:
Assay in all cases: FRET or BRET; GCGR–Rluc8 (or mutants) and βarr1–GFP2 (or mutants) co-transfected 1:1 in HEK293F cells; glucagon 1 pM to 10 μM; HBSS, 20 mM HEPES pH 7.4; coelenterazine 400a; EC50 is that of glucagon in inducing the BRET signal
[1] = target: the GCGR mutations R413A and R414A (as a group, for the printed range of the EC50 shift)
[2] = target: wild-type GCGR with Rluc8 at the C terminus (human) (UniProt P47871)
Sequence of wild-type GCGR with Rluc8 at the C terminus (human) (P47871 26-477): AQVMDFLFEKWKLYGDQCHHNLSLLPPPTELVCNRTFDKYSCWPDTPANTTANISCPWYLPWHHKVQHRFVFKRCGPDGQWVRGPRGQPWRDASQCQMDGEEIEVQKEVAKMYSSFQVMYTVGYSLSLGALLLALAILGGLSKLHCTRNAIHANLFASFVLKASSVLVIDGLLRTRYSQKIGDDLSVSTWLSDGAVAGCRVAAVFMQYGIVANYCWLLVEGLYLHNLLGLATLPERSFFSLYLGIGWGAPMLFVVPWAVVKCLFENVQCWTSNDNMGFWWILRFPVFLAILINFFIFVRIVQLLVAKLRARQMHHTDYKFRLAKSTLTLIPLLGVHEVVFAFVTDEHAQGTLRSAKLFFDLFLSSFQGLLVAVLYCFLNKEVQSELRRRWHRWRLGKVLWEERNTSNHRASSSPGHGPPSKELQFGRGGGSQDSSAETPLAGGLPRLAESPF

[3] = target: T1, wild-type GCGR with Rluc8 at the C terminus (human, UniProt P47871 26-477); conditions: partners not purified
T1 construct: glucagon receptor (GCGR), human, wild type; also called WT; source: HEK293F, transfected, in living cells; not shown: FLAG, N-terminal, kept; Rluc8, C-terminal, kept
T1 sequence (P47871 26-477): as above

## human βarr1 with GFP2 at the C terminus (from UniProt P49407 1-418) (natural protein)
[1]
  fold shift of the glucagon EC50 in the GCGR–βarr1 BRET, mutant against wild type: 112 to 205 fold

## ΔFL, the βarr1 mutant with the turn region of the finger loop removed, with GFP2 at the C terminus (from UniProt P49407 1-418) (natural protein)
[2]
  fold shift of the glucagon EC50 in the GCGR–βarr1 BRET, mutant against wild type: 24 fold

B1: βarr1 3Q (K232Q, R236Q and K250Q) with GFP2 at the C terminus (natural protein, human, UniProt P49407 1-418, looked up)
chain: MGDKGTRVFKKASPNGKLTVYLGKRDFVDHIDLVDPVDGVVLVDPEYLKERRVYVTLTCAFRYGREDLDVLGLTFRKDLFVANVQSFPPAPEDKKPLTRLQERLIKKLGEHAYPFTFEIPPNLPCSVTLQPGPEDTGKACGVDYEVKAFCAENLEEKIHKRNSVRLVIRKVQYAPERPGPQPTAETTRQFLMSDKPLHLEASLDKEIYYHGEPISVNVHVTNNTNKTVKKIQISVQQYADICLFNTAQYQCPVAMEEADDTVAPSSTFCKVYTLTPFLANNREKRGLALDGKLKHEDTNLASSTLLREGANREILGIIVSYKVKVKLVVSRGGLLGDLASSDVAVELPFTLMHPKPKEEPPHREVPENETPVDTNLIELDTNDDDIVFEDFARQRLKGMKDDKEEEEDGTGSPQLNNR
notes: β-arrestin 1 (βarr1), human, triple mutant of the wild type; source: HEK293F, transfected, in living cells; not shown: GFP2, C-terminal, kept
[3]
  fold drop of glucagon potency in the GCGR–βarr1 BRET, mutant against wild type: 15 fold
